We go through 2 molecules from patent EP3470428A1.

Bounds are passed on as bounds.

For assay [1], the target named is human PD-L1-Fc chimeric protein (human) (UniProt Q9NZQ7). Briefly: SPR (Biacore T200); PD-L1-Fc captured by anti-human Fc.
Assay [2] addresses human CD137-Fc chimeric protein (human) (UniProt Q07011). Briefly: SPR (Biacore T200); CD137-Fc captured by anti-human Fc.

human CD137-Fc chimeric protein (human), sequence (Q07011 24-186, change not shown): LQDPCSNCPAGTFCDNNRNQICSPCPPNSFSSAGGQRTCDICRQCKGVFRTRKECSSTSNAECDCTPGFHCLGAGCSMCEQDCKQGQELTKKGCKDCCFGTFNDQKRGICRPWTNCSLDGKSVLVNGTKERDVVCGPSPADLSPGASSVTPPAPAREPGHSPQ

B1: PRO1126: 38-02-A04 sc01 scDb-i/33_03_G02 sc03 Full scDb-o (bispecific antibody)
chain: DFQLTQSPSSLSASVGDRVTITCQASQSINDYLAWYQQKPGKSPKLLIYKASTLASGVPSRFSGSGSGTDFTLTISSLQPEDFATYYCQQGYIITDIDNVFGTGTKVTVLGGGGGSQVQLQESGPGLVKPSETLSLTCKVSGFSFSNSYWICWIRQPPGKGLEWIGCTFVGSSDSTYYANWAKGRVTISVDSSKNQFSLKLSSVTAADTAVYYCARHPSDAVYGYANNLWGQGTLVTVSSGGGGSGGGGSGGGGSGGGGSIQMTQSPSSLSASVGDRVTITCQASQSINNVLAWYQQKPGKAPKLLIYRASTLASGVPSRFSGSGSGTDFTLTISSLQPEDFATYYCQSSYGNYGDFGTGTKVTVLGGGGGSQSQLQESGPGLVKPSETLSLTCKASGFSFSSGYDMCWVRQPPGKGLEWIACVVAGSVDITYYASWAKGRVTISKDSSKNQVSLKLSSVTAADTAVYFCARKDAYSDAFNLWGQGTLVTVSS
For B1, the fold improvement in affinity against the CDR graft (PRO885) in assay [1] was found to be 20 fold.

B2: PRO1124: 38-02-A04 sc06 Full scDb-i/33_03_G02 sc01 scDb-o (bispecific antibody)
chain: DIQMTQSPSSLSASVGDRVTITCQASQSINDYLAWYQQKPGKAPKLLIYKASTLASGVPSRFSGSGSGTDFTLTISSLQPEDFATYYCQQGYIITDIDNVFGTGTKVTVLGGGGGSQVQLQESGPGLVKPSETLSLTCKASGFSFSNSYWICWVRQPPGKGLEWIGCTFVGSSDSTYYANWAKGRVTISKDSSKNQVSLKLSSVTAADTAVYFCARHPSDAVYGYANNLWGQGTLVTVSSGGGGSGGGGSGGGGSGGGGSLQMTQSPSSLSASVGDRVTITCQASQSINNVLAWYQQKPGKPPKLLIYRASTLASGVPSRFSGSGSGTDFTLTISSLQPEDFATYYCQSSYGNYGDFGTGTKVTVLGGGGGSQVQLQESGPGLVKPSETLSLTCKVSGFSFSSGYDMCWIRQPPGKGLEWIGCVVAGSVDITYYASWAKGRVTISVDSSKNQFSLKLSSVTAADTAVYYCARKDAYSDAFNLWGQGTLVTVSS
In turn, B2 had a fold improvement of affinity against PRO885 in assay [2] above 200 fold.
